From EP4810052A2 (Gubra A/S, dated 2026) come the findings set out here.

T1: human corticotropin-releasing hormone receptor 1 (human, UniProt P34998 24-415)
T1 sequence (looked up): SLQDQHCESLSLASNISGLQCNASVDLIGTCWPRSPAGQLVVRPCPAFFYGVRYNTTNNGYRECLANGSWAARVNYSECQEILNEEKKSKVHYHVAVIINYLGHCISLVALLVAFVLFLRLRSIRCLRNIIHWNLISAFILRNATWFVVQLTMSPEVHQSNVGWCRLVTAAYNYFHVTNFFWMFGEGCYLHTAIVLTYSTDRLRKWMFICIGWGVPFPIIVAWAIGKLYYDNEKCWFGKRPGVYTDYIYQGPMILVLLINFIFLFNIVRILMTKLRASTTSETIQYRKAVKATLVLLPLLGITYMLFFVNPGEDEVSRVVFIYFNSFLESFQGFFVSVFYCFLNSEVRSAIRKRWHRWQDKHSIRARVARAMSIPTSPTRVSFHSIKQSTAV

T2: mouse CRH receptor 1 (mouse, UniProt P35347 24-415)
T2 sequence (looked up): T1 sequence (looked up) with H6Q, I16V, V95I, M153V, G163A, I209V, H356R

T3: rat CRH receptor 1 (rat, UniProt P35353 24-415)
T3 sequence (looked up): T1 sequence (looked up) with H6R, S9N, A13T, I16V, M153V, G163A, I209V, Y229H, H356R

B1: SEQ ID NO: 3 (Lipidated UCN2 with X^36 = E; X^40 = E) (reference 1) (peptide)
peptide: IVLSLDVPIGLLQILLEQARARAAREQAK(lip)TNAEILAEV-NH2
modifications: not fully specified; reading uncertain
B2: SEQ ID NO: 6, [MeI]VLSLDVPIGLLQILLEQARARAAREQAT[K*]NAEILAEV(NH2) (peptide)
peptide: [NMeI]VLSLDVPIGLLQILLEQARARAAREQATKNAEILAEV-NH2
modifications: not fully specified (residue 30); printed as [MeI]VLSLDVPIGLLQILLEQARARAAREQAT[K*]NAEILAEV(NH_2); also: lipid and spacer on Lys30 not given here
B3: SEQ ID NO: 16, [MeI]VLSLDVPIGLLQILLEQARARAAREQA[K*]TN[Aib]EILAEV(NH2) (peptide)
peptide: [NMeI]VLSLDVPIGLLQILLEQARARAAREQAK(lip)TN[Aib]EILAEV-NH2
modifications: reading uncertain; also: printed as [MeI]VLSLDVPIGLLQILLEQARARAAREQA[K*]TN[Aib]EILAEV(NH2)
B4: SEQ ID NO: 215, [MeI]VLSLDVPIGLLQILLSQARARAAREQA[K*]TN[Aib]EI[Nle]AEV(NH2) (peptide)
peptide: [NMeI]VLSLDVPIGLLQILLSQARARAAREQAK([AEEA-AEEA-γGlu-γGlu-C20 diacid])TN[Aib]EI[Nle]AEV-NH2
modifications: not fully specified; printed as [MeI]VLSLDVPIGLLQILLSQARARAAREQA[K*]TN[Aib]EI[Nle]AEV(NH_2)
B5: SEQ ID NO: 238, PVLSLDVPIGLLQILLSQARARAAREQA[K*][Aib]NAEI[Nle]AEV(NH2) (peptide)
peptide: PVLSLDVPIGLLQILLSQARARAAREQAK[Aib]NAEI[Nle]AEV-NH2
modifications: not fully specified (residue 29); printed as PVLSLDVPIGLLQILLSQARARAAREQA[K*][Aib]NAEI[Nle]AEV(NH_2); also: lipid and spacer on Lys29 not given here

Substitutions are numbered along the chain they refer to. Starred links: 1 amine or outer side, 2 acyl side, 3 side chain; linkers in the order of their positions; H or OH if unused. Non-standard residues stand in square brackets, D forms with d. Groups on a side chain read outwards from the residue. No end group written: not given here. *: point of attachment. C20 diacid = O=C(O)CCCCCCCCCCCCCCCCCCC(=O)*; γGlu = O=C(O)[C@H](CCC(=O)[*:2])N[*:1]; NMeI = CC[C@H](C)[C@H](NC)C(=O)O; Nle = CCCC[C@H](N)C(=O)O; lip = not defined here; AEEA = NCCOCCOCC(=O)O; Aib = CC(C)(N)C(=O)O Some results are limits rather than exact numbers.

The target of one test is T1, human corticotropin-releasing hormone …. In words: cell-based or functional assay.
With B1, the “hCRHR1 EC50 (nM); HTRF cAMP assay, CHO-K1 cells stably expressing hCRHR1” value (from here on “hCRHR1 EC50 (nM); HTRF cAMP assay”) was over 5000 nM.

B2: the “hCRHR1 EC50 (nM); HTRF cAMP assay” value was over 5000 nM.

A further test has the same target. In words: cell-based or functional assay. The source holds these as a separate data set.
Turning to B1, the “hCRHR1 EC50 (nM); HTRF cAMP assay” value was over 5000 nM.

In the case of B2, the “hCRHR1 EC50 (nM); HTRF cAMP assay” value was over 5000 nM.

With B3, the “hCRHR1 EC50 (nM); HTRF cAMP assay” value is over 5000 nM.

The next test has the same target. In words: cell-based or functional assay. The source holds these as a separate data set.
Regarding B4, the “hCRHR1 EC50 (nM); HTRF cAMP assay” value is over 5000 nM.

With B1, the “hCRHR1 EC50 (nM); HTRF cAMP assay” value was over 5000 nM.

B5: the “hCRHR1 EC50 (nM); HTRF cAMP assay” value was over 5000 nM.

A further test shares this target. In words: cell-based or functional assay. The source holds these as a separate data set.
Regarding B4, the “Stable EC50 (nM), hCRHR1; cAMP assay, stable CHO-K1 cells” value (“Stable EC50 (nM), hCRHR1; cAMP assay” below) was over 5000 nM and the “Transient cell system EC50 (nM), hCRHR1; cAMP assay, transiently transfected CHO-K1 cells” value (from here on “Transient cell system EC50 (nM), hCRHR1”) came out at 826 nM.

Take B1: the “Stable EC50 (nM), hCRHR1; cAMP assay” value is over 5000 nM and the “Transient cell system EC50 (nM), hCRHR1” value was over 1000 nM.

For B2, the “Stable EC50 (nM), hCRHR1; cAMP assay” value is over 5000 nM and the “Transient cell system EC50 (nM), hCRHR1” value was over 1000 nM.

On to B3, for which the “Stable EC50 (nM), hCRHR1; cAMP assay” value is over 5000 nM and the “Transient cell system EC50 (nM), hCRHR1” value is over 1000 nM.

B5: the “Stable EC50 (nM), hCRHR1; cAMP assay” value is over 5000 nM and the “Transient cell system EC50 (nM), hCRHR1” value was over 5000 nM.

The next test addresses T2, mouse CRH receptor 1. In words: cell-based or functional assay.
As to B4, the “Transient cell system EC50 (nM), mCRHR1; cAMP assay, transiently transfected CHO-K1 cells” value (from here on “Transient cell system EC50 (nM), mCRHR1”) amounted to 50 nM.

With B1, the “Transient cell system EC50 (nM), mCRHR1” value was 44 nM.

With B2, the “Transient cell system EC50 (nM), mCRHR1” value worked out at 71 nM.

Turning to B3, the “Transient cell system EC50 (nM), mCRHR1” value came out at 76 nM.

Turning to B5, the “Transient cell system EC50 (nM), mCRHR1” value was determined as 323 nM.

In the next test the target is T3, rat CRH receptor 1. In words: cell-based or functional assay.
With B4, the “Transient cell system EC50 (nM), rCRHR1; cAMP assay, transiently transfected CHO-K1 cells” value (from here on “Transient cell system EC50 (nM), rCRHR1”) was found to be 175 nM.

As to B1, the “Transient cell system EC50 (nM), rCRHR1” value worked out at 163 nM.

Consider B2, for which the “Transient cell system EC50 (nM), rCRHR1” value worked out at 275 nM.

In the case of B3, the “Transient cell system EC50 (nM), rCRHR1” value was 256 nM.

In the case of B5, the “Transient cell system EC50 (nM), rCRHR1” value is over 1000 nM.

The next test deals with porcine CRH receptor 1 (pig). In words: cell-based or functional assay.
For B4, the “Transient cell system EC50 (nM), pCRHR1; cAMP assay, transiently transfected CHO-K1 cells” value (from here on “Transient cell system EC50 (nM), pCRHR1”) is over 1000 nM.

Regarding B1, the “Transient cell system EC50 (nM), pCRHR1” value is over 5000 nM.

For the molecule B2, the “Transient cell system EC50 (nM), pCRHR1” value is over 5000 nM.

For B3, the “Transient cell system EC50 (nM), pCRHR1” value is over 5000 nM.

In the case of B5, the “Transient cell system EC50 (nM), pCRHR1” value is over 5000 nM.
